Measured values published in the nanobody polyreactivity screen of Harvey et al. (2022).

Assay: yeast display, Sf9 membrane polyspecificity reagent, FACS + sequencing; frameworks hold sequencing errors
In short: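 Polyreactivity labels are assigned by the sorting gate from which each nanobody was recovered. The gates were low and high (top ~1%), set on anti-HA fluorescence for expression and streptavidin fluorescence for reagent binding. Before sorting, galactose-induced (36–48 hours) yeast display cells were stained for 1 hour at 4 °C with 10% biotinylated, detergent-solubilized Sf9 membrane reagent.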

| Sequence | polyreactivity (PSR sort gate) |
| --- | --- |
| QVQLVESGGGLVQAGVSLRLSCAASGRIFPYNAMGWDRQAPGKERELVAAIDWSGGRTYYADSVKGRFTISRDNAKNTDYLQMNSLKPEDTALYYCAAAYGGRLRYTAGYYWGQGTQVTVSS | high polyreactivity |
| QVQLVESGGGLVQAGVSLRLSCAASGRIKDNVMGWYRQAPGKERELVAAITRYAGRTYYAYSVKGRFTISRDNAKITVYLQMNSLKPVDTAVYYCAAQAERSGYEYWGLGTQVTVSS | low polyreactivity |
| QVQLVESGGGLVQAGVSLRLSCAASGRTFIGNAMGWYRQAPGKEREFVAAISRRGGSTYYADSVKGRFTISRDNAKNTVYLQMNSLKPEDTAVYYCAAGQTTTGILTYYYWGQGTQVTVSS | high polyreactivity |
| QVQLVESGGGLVQAGVSLRLSCAASGSTFGANAMGWYRQAPGKEREFVAAISGSGTTTYYADSVKGRFTISRDNAKNTVYLQMNSLKPEDTAVYYCAKTRKAHWLEYWGQGTQVTVSS | low polyreactivity |
| QVQLVESGGGLVQAGVSLRLSCAASGSTFVVNAMGWYRQAPGKERELVAAITQSGGSTFYADSVKGRFTISRDNAKNTVYLQMNSLKPEDTAVYYWGQGTQVTVSS | low polyreactivity |
| QVQLVESGGGLVQAGVSLRLSCAASMGWYRQAPGKERELVAAITRGGTTYYADSVQGRFTISRDNAKNTVYLQMNSLKPEDTAVYYGAKAGPGFLYDHWGQGTQVTVSS | high polyreactivity |
| QVQLVESGGGLVQAGVSLRLSCAASVITFVYYTMGWYRQAPGKERELVAAISQSAVNTYYADSVKGRFTISRDNAKNTVYLQMNSLKPEVTAVYYCNARFRATFTSYGTDYRRRFDYWGQGTQVTVSS | high polyreactivity |
| QVQLVESGGGLVQAGVSLRLSCAASVSIFSGNTMGWYRQAPGKERELVAAIRWRGGTYYADSVKGRFTISRDNAKNTVYLQMNSLKPEDPAVYYCATSVKPSYDYWGQGTQVTVSS | low polyreactivity |
| QVQLVESGGGLVQAGVSLRLSSAASGSTFLYYAMGWYRQAPGKESEMVAAIDWSDTSTYFADSVKGRFTISRDIAKNTVYLQMNSLKTEDTAVYYCIREATYVYAAGYDYWGQGTQVTVSS | low polyreactivity |
| QVQLVESGGGLVQAGVSLRLSSAASGSTLGYNVMGWYRQAPGKERELVAAISGDGSTNYADSVKGRFTISRDNAKNTVYLQMNSLKPEDTAVFYCNAPFWGYRTSFSYPVVQRFDYWGQGTQVTVSS | low polyreactivity |
| QVQLVESGGGLVQAGVSLSLSCADSGSFSDFYAMGWYRQAPGKERELVAAITSSGGSTYYADSVKGRFTISREIAKNTGYLQMNSLKPEDTAVYYCNRYSNLGYNYWGQGTQVSVSS | high polyreactivity |
| QVQLVESGGGLVQAPGSLRLSSAASGRIFNQYGMGWYRQAPGKERELVAAIRSGDSTNYADSVKGRFTISRDNAKNTVYLQMNSLKQEDSAVYYCARDRPGDYAGYYYWGKGTQVTVSS | low polyreactivity |
| QVQLVESGGGLVQARASLRLSCAASGNTIGYYAMGWYRQAHGKERELVAAISKRGGSTRYADSVKGRFTISRDNAKNTVYLQMNSLKPEDTAVYYCNAEGFGSLRYSYCNSFDYWGQGTQVTVSS | high polyreactivity |
| QVQLVESGGGLVQARGSHRLSCAASGSIFVINAMGWYRQAPGKERELVAAISYSGTGTYFADSVKGRFTISRDNAKNTVYLQMNSLKPEDTAVYYCAADYYYRYRIYDYWGQGTQVTVSS | low polyreactivity |
| QVQLVESGGGLVQARGSLRLICAASGRTINGYVMGWYRPAPGKEREFVAVINWSGGNTYYADSVKGRFTISRDNAKNTLYLQMNSLKPEDTAVYDCAARRVRSYAYDYWGQGTEVTVSS | high polyreactivity |
| QVQLVESGGGLVQARGSLRLNSAASGRTFYQYVMGWYRQAPWKERELVAAIRSGGNTYYADSEKGRITISRDNAKYTVYLQMNSLKPEDTAVYYCAVQRGYYRFRLGLYCYDYWGQGTQVTVSS | high polyreactivity |
| QVQLVESGGGLVQARGSLRLSCAASGFTSLWNGMGLSSQAPGKERELVAAITSDSSTYYADSVKGRFTISRDNAKNTVYLQMNSLKPEDTAVYYCAKYFVYVGYGRYDYWGQGTEVTVSS | low polyreactivity |
| QVQLVESGGGLVQARGSLRLSCAASGIIFAFYAMGWYRQPPGKERELVAGITSGGDTYYADSVKGRFTISRDNAKKTVYLQMNRLKPEDTAVYYCAAVVQYPYRAGWRYWYATNFDYWGQGTQVTVSS | high polyreactivity |
| QVQLVESGGGLVQARGSLRLSCAASGIIFYPNAMGWYRQAPGKERELVASIRSGGITTYADSVKGRFTISRDNAKNTVYLQMNSLKPEDTAVYDCATRSYYRYATFAYYYWGQGTQVTVSS | high polyreactivity |
| QVQLVESGGGLVQARGSLRLSCAASGINFYHYPMGWYRQATGKEMELVAAINWGGSRTYYADSVKGRFTISRDNAKNTVYLQMNSLKPEDTAVYYCAAVYVPYYWLGRSRGLDYWGQGTQVTVSS | high polyreactivity |
| QVQLVESGGGLVQARGSLRLSCAASGRIFGLYAMGWYRQAPGKERELVASINSRGGSTNYADSVKGRFTISRDNAKNTVYLQMTSLKPEDTAVYYCNARFVYAYQRYYWGQGTQVTVSS | high polyreactivity |
